“And” between values parts separate entries of the source, which are not always exact repeats. Equal values may be shown once.
Tests used:
endogenous P2Y2 receptor = assay: Assay of activation of endogenous P2Y2 receptor by ATP in CHO cells stably expressing photoproteins; format: cell-based; conditions: CHO cells stably expressing the sensor; for EC50: ATP dose-response, read-out: EC50 (half-maximal effective concentration of ATP for P2Y2 activation)
Procedure: Stably prepared CHO cells were loaded with 5 μM coelenterazine in 130 mM NaCl, 5 mM KCl, 1 mM MgCl2, 2 mM CaCl2, 5 mM NaHCO3, 20 mM N-(2-hydroxyethyl) piperazine-N′-ethanesulfonic acid (HEPES), pH 7.4 for 4 h at ambient temperature.
To produce stable CHO cell lines, the cells transfected with GA and Redquorin variant plasmids were seeded on six-well plates and grown in the same medium with addition of Geneticin sulfate (G418) (Gibco, UK) at 1 mg/ml under the same conditions with replacement of the medium by fresh medium every 2 days. After 7-10 days of selection, CHO cells were transferred into a medium without antibiotic. To select clones with the highest bioluminescence activity, one run of limiting dilution was performed. CHO cells after G418 selection were seeded on 96-well plates (approximately 0.5 cells per well) and grown in DMEM/F12 medium supplemented with 10% fetal calf serum at 37° C., 5% CO2 for up to 80-90% confluence. Before the bioluminescence measurements, the plates with monoclones of CHO cells expressing the corresponding photoprotein were duplicated and grown for up to 90-100% confluence. Then, the medium was removed and cells were loaded with coelenterazine, and bioluminescence in each well was measured according to the procedure described earlier. As a result, the CHO cell clones with the highest bioluminescence activity were selected.
Assay of Activation of Endogenous P2Y2 Receptor in CHO Cells
The CHO cell lines stably expressing each photoprotein were used in assay of activation of endogenous P2Y2 receptor by ATP. The day before the measurements, the corresponding cells were seeded on 96-well plates with DMEM/F12 medium supplemented with 10% fetal calf serum and were grown at 37° C. with 5% CO2 for up to 90-100% confluence. Then, the medium was replaced by 100 μl of coelenterazine solution per well (5 μM coelenterazine in 130 mM NaCl, 5 mM KCl, 1 mM MgCl2, 2 mM CaCl2, 5 mM NaHCO3, 20 mM HEPES, pH7.4) and the cells were incubated at 23° C. for 4 h. Emission from photoproteins in the cells was measured using a Mithras LB 940 plate luminometer. The ATP was injected at a given concentration to trigger an intracellular Ca^2+ response in the cells and the measurement started immediately. The bioluminescence was integrated over a time interval of 0.05 s for 30 s.

[1] = system: pyramidal neurons of mouse neocortical slices; assay: Bioluminescence Ca2+ imaging of transduced neocortical slices in Mg2+-free ACSF; format: cell-based; conditions: native coelenterazine, 25 Hz
Procedure: Recombinant Sindbis viruses were prepared and used to express Redquorin mutants and GA in neurons of brain slices as described (Drobac et al., 2010), (Tricoire and Lambolez, 2014). The coding sequences of Redquorin mutants and GA were first subcloned in the plasmid pSinRep5 (Invitrogen) upstream to the polyA signal. The resulting pSinRep5 plasmids encoding the fusion protein sensors as well as the helper plasmid pDH26S (Invitrogen) were then submitted to in vitro transcription to prepare capped RNA using the Megascript SP6 kit (Ambion). […]
Bioluminescence imaging was performed at room temperature using an intensified CDD video camera (ICCD225; Photek) controlled by the IFS32 software (Photek), and mounted on an upright microscope (BX51WI, Olympus) equipped with water immersion objectives ×10 (NA=0.3) and ×20 (NA=0.95). Prior to bioluminescence imaging, fluorescence images of GA- or Redquorin-transduced slices were acquired in the “bright field” mode of the camera using GFP (Semrock) or Cy3ET (Chroma) filter sets. […]
The transduced acute brain slices expressing the sensors were then perfused with artificial cerebrospinal fluid (ACSF) without Mg^2+. […] Before the threshold for depolarization, the recorded imaging intensity was very weak consistent with the concept of low background luminescence of photoproteins. […]

B1: Redq/Q159T: aporedquorin (tdTomato-aequorin fusion) mutant Q159T (SEQ ID NO:22) (protein)
chain: MVSKGEEVIKEFMRFKVRMEGSMNGHEFEIEGEGEGRPYEGTQTAKLKVTKGGPLPFAWDILSPQFMYGSKAYVKHPADIPDYKKLSFPEGFKWERVMNFEDGGLVTVTQDSSLQDGTLIYKVKMRGTNFPPDGPVMQKKTMGWEASTERLYPRDGVLKGEIHQALKLKDGGHYLVEFKTIYMAKKPVQLPGYYYVDTKLDITSHNEDYTIVEQYERSEGRHHLFLGHGTGSTGSGSSGTASSEDNNMAVIKEFMRFKVRMEGSMNGHEFEIEGEGEGRPYEGTQTAKLKVTKGGPLPFAWDILSPQFMYGSKAYVKHPADIPDYKKLSFPEGFKWERVMNFEDGGLVTVTQDSSLQDGTLIYKVKMRGTNFPPDGPVMQKKTMGWEASTERLYPRDGVLKGEIHQALKLKDGGHYLVEFKTIYMAKKPVQLPGYYYVDTKLDITSHNEDYTIVEQYERSEGRHHLFLSGFDNPRWIGRHKHMFNFLDVNHNGKISLDEMVYKASDIVINNLGATPEQAKRHKDAVEAFFGGAGMKYGVETDWPAYIEGWKKLATDELEKYAKNEPTLIRIWGDALFDIVDKDQNGAITLDEWKAYTKAAGIIQSSEDCEETFRVCDIDESGTLDVDEMTRQHLGFWYTMDPACEKLYGGAVP
modifications: mutant aequorin
Q: How did the “[ATP] DL (detection limit)” value (endogenous P2Y2 receptor) turn out when B1 was run?
A: Its value is 398 nM and 398 ± 17 nM.

Q: And the EC50 (endogenous P2Y2 receptor)?
A: Its EC50 is 1700 nM.

Q: What about the “bioluminescence imaging response to Ca2+ transients” value [1] of the same molecule?
A: Its value is “performed as well as its analogue GA”.

B2: Redq/Q159D: aporedquorin (tdTomato-aequorin fusion) mutant Q159D (SEQ ID NO:21) (protein)
chain: MVSKGEEVIKEFMRFKVRMEGSMNGHEFEIEGEGEGRPYEGTQTAKLKVTKGGPLPFAWDILSPQFMYGSKAYVKHPADIPDYKKLSFPEGFKWERVMNFEDGGLVTVTQDSSLQDGTLIYKVKMRGTNFPPDGPVMQKKTMGWEASTERLYPRDGVLKGEIHQALKLKDGGHYLVEFKTIYMAKKPVQLPGYYYVDTKLDITSHNEDYTIVEQYERSEGRHHLFLGHGTGSTGSGSSGTASSEDNNMAVIKEFMRFKVRMEGSMNGHEFEIEGEGEGRPYEGTQTAKLKVTKGGPLPFAWDILSPQFMYGSKAYVKHPADIPDYKKLSFPEGFKWERVMNFEDGGLVTVTQDSSLQDGTLIYKVKMRGTNFPPDGPVMQKKTMGWEASTERLYPRDGVLKGEIHQALKLKDGGHYLVEFKTIYMAKKPVQLPGYYYVDTKLDITSHNEDYTIVEQYERSEGRHHLFLSGFDNPRWIGRHKHMFNFLDVNHNGKISLDEMVYKASDIVINNLGATPEQAKRHKDAVEAFFGGAGMKYGVETDWPAYIEGWKKLATDELEKYAKNEPTLIRIWGDALFDIVDKDQNGAITLDEWKAYTKAAGIIQSSEDCEETFRVCDIDESGDLDVDEMTRQHLGFWYTMDPACEKLYGGAVP
modifications: mutant aequorin
Q: Which “[ATP] DL (detection limit)” value (endogenous P2Y2 receptor) does the source give for B2 here?
A: The value was 417 ± 16 nM.

Q: What about the EC50 (endogenous P2Y2 receptor) of the same molecule?
A: Its EC50 is 2300 ± 200 nM.

Q: And the “bioluminescence imaging response to Ca2+ transients” value [1]?
A: Its value is “significant signal-over-background ratio”.

From patent US20180319855A1, “GENETICALLY MUTATED AEQUORIN-BASED BIOSENSORS WITH EXTRA SENSITIVITY TO CALCIUM AND IMPROVED BIOLUMINESCENCE INTENSITY” (CENTRE NATIONAL DE LA RECHERCHE SCIENTIFIQUE (CNRS), priority 2015, published 2018)
